Data: publication PMC4804311

Columns and labels:
[1] = biological target: CTD released by factor Xa from full-length proRgpB662iXa produced in P. gingivalis (Porphyromonas gingivalis W83) (UniProt P95493); assay: cross-linking; glutaraldehyde (0.01-0.1%) in PBS, 5 min at 37 °C, stopped with 100 mM Tris; protein at 1, 0.5 and 0.1 mg/ml; SDS-PAGE and Western blot
[2] = biological target: recombinant C-terminal domain (CTD) of gingipain B (RgpB) (Porphyromonas gingivalis W83) (UniProt P95493); assay: SEC; Superdex 75 10/300 GL, 50 mM Tris, 150 mM NaCl, 2.5 mM CaCl2, 0.02% NaN3 pH 7.5; fractions analysed by Western blot with anti-rCTD antibodies
[3] = biological target: recombinant C-terminal domain (CTD) of gingipain B (RgpB) (Porphyromonas gingivalis W83) (UniProt P95493); assay: cross-linking; glutaraldehyde (0.01-0.1%) in PBS, 5 min at 37 °C, stopped with 100 mM Tris; protein at 1, 0.5 and 0.1 mg/ml; SDS-PAGE and Western blot
[4] = biological target: recombinant C-terminal domain (CTD) of gingipain B (RgpB) (Porphyromonas gingivalis W83) (UniProt P95493); assay: cross-linking; data not shown: rCTD and r664i6H at 0.1 mg/ml exposed to 0.1, 0.05 and 0.01% glutaraldehyde

| Substance | stoichiometry N [1] | stoichiometry N [2] | stoichiometry N [3] | stoichiometry N [4] |
| --- | --- | --- | --- | --- |
| CTD released by factor Xa from full-length proRgpB662iXa produced in P. gingivalis (from UniProt P95493 663-736) (domain or fragment) | 2 | – | – | – |
| recombinant C-terminal domain (CTD) of gingipain B (RgpB) (from UniProt P95493 664-736) (domain or fragment) | – | 2 | 2 | 2 |
